{"source": "paper PMC8303762", "biological_target": "insulin-like growth factor-1 receptor (IGF-1R) on MCF-7 cells (human (endogenous in MCF-7)) (UniProt P08069)", "sequence (P08069 31-1367)": "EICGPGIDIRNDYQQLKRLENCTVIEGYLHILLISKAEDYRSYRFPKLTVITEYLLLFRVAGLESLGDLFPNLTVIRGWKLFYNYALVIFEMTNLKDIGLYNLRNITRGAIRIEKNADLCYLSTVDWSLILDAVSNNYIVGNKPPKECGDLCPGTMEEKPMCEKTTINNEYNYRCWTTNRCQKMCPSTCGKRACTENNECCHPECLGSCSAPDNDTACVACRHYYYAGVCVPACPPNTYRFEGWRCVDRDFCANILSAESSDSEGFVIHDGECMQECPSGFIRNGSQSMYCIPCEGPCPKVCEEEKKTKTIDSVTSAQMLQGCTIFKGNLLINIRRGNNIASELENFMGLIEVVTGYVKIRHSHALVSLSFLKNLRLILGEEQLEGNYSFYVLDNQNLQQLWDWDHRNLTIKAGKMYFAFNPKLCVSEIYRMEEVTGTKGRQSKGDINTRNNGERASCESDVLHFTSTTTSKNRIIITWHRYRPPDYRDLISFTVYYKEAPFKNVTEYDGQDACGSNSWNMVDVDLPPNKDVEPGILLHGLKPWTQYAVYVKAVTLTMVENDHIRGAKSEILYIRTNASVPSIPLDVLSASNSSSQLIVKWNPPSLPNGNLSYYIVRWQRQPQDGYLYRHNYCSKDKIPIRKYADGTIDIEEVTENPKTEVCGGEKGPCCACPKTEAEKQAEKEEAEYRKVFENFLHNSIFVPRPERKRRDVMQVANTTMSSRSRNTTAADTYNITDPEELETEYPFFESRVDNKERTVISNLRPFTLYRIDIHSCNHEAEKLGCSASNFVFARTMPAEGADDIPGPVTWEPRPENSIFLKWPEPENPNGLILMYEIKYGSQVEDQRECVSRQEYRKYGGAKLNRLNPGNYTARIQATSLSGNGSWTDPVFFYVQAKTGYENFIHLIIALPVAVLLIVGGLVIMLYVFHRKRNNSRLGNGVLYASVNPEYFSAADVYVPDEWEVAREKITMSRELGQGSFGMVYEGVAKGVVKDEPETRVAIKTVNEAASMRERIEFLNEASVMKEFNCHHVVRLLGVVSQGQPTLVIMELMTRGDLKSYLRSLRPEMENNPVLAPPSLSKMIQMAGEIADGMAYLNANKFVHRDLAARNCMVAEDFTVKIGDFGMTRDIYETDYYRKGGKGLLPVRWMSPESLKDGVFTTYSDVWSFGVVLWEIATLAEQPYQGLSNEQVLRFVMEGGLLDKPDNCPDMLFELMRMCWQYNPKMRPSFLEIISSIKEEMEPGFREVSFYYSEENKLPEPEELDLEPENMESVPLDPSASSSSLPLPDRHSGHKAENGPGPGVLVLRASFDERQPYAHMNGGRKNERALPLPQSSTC", "data": [{"substance": "recombinant human vimentin (from UniProt P08670 1-466) (natural protein)", "values": [{"measurement": "MTT proliferation of MCF-7 cells treated with recombinant human vimentin (0, 50, 100, 200 ng/mL), 72 h; value printed for 100 ng/mL", "result": "> 20", "unit": "%"}]}]}
